Results published in US20260263521A1 (AIMED BIO, published 2026).

Tests used:
[1] = target: T1, human CD200R1 with dual His-tags (human, UniProt Q8TD46 25-265); experiment: SPR (Biacore CM5), His-tagged antigen captured by anti-histidine antibody, antibody as analyte, 1:1 Langmuir fit
T1 construct: Captured on the SPR chip by an anti-histidine antibody; also called hCD200R1-his; not shown: dual His-tags
T1 sequence (looked up): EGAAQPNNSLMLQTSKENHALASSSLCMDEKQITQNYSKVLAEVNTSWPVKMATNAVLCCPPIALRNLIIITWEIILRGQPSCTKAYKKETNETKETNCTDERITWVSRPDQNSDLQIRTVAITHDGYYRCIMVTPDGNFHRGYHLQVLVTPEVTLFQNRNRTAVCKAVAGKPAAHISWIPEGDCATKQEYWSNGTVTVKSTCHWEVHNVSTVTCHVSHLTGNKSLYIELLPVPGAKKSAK

[2] = target: T2, cynomolgus CD200R1 with dual His-tags (cynomolgus, UniProt G7NZT0 25-266); experiment: as above
T2 construct: Captured on the SPR chip by an anti-histidine antibody; also called CCD200R1-his; cCD200R1-his; not shown: dual His-tags
T2 sequence: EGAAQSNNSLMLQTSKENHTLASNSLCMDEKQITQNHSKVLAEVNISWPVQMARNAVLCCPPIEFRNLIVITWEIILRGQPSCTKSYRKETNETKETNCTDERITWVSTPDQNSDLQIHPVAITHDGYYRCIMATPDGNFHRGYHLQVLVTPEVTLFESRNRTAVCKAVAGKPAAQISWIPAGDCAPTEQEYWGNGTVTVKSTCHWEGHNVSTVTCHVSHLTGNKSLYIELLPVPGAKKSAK

Kd [2]: 2.08 nM
koff [2]: 0.0117 s⁻¹
kon [2]: 5.63e+06 M⁻¹ s⁻¹
B1: P001009 (IgG) (antibody, V domains shown)
VH: EVQLLESGGGLVQPGGSLRLSCAASGFTFSSYDMSWVRQAPGKGLEWVSWISHGGGSIYYADSVKGRFTISRDNSKNTLYLQMNSLRAEDTAVYYCARDAPAYSAPLFDYWGQGTLVTVSS
VL: QSVLTQPPSASGTPGQRVTISCSGSSSNIGNNAVNWYQQLPGTAPKLLIYYDSNRPSGVPDRFSGSKSGTSASLAISGLRSEDEADYYCAAWDDSLSGYVFGGGTKLTVL
notes: also called P001009 WT; P001009 wt
Kd [1]: 0.0475 nM
koff [1]: 0.000134 s⁻¹
kon [1]: 2.81e+06 M⁻¹ s⁻¹
